Reference: patent US20220403048A1, “BINDING MOLECULES TO ARGINASE II [ARG2]” (Cancer Research Technology Limited, priority 2019, published 2022)

Legend:
[1] = biological target: recombinant human trimeric ARG2 enzyme (construct not given) (human) (UniProt P78540); assay: cell-based or functional assay
[2] = biological target: biotinylated recombinant human trimeric ARG2 enzyme (Avi-huARG2-His10) (human) (UniProt P78540); assay: HTRF epitope competition, scFv titrated, competitor C0020187 IgG, on biotinylated human trimeric ARG2
[3] = biological target: recombinant human trimeric ARG2 enzyme (construct not given) (human) (UniProt P78540); assay: size-exclusion chromatography, 8 µM each
Target sequence in this assay (P78540 23-354, form in doubt): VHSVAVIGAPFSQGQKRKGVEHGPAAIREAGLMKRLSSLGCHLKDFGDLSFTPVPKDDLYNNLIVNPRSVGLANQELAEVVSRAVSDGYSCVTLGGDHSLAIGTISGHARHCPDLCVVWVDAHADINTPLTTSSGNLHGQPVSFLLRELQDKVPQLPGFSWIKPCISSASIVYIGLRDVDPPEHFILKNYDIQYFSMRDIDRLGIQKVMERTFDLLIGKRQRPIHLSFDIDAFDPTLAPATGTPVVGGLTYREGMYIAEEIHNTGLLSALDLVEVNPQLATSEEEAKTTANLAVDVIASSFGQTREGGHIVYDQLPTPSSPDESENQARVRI

[4] = biological target: recombinant human trimeric ARG2 enzyme (construct not given) (human) (UniProt P78540); assay: dynamic light scattering, 8 µM each
Target sequence in this assay (P78540 23-354, form in doubt): as above

biotinylated recombinant human trimeric ARG2 enzyme (Avi-huARG2-His10) (human), sequence (P78540 other isoform, or with tags, fused parts or gaps limits assumed, form in doubt): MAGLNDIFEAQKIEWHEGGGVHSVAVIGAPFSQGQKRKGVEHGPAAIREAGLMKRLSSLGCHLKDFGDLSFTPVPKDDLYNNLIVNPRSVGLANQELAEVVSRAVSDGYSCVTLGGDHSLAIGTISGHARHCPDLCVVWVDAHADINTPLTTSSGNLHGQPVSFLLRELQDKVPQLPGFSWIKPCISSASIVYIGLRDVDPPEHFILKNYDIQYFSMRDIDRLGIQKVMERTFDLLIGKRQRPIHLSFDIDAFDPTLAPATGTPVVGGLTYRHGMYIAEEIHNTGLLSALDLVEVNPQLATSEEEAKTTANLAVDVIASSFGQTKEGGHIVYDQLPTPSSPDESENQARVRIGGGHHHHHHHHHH

B1: C0021142 scFv (scFv, part only; not given: linker, domain order, tag, V domains shown, not shown: another chain or arm of the molecule; small tags and cut ends)
VH: EVQLLESGGGLVQPGGSLRLSCAASGFTFSSYAMSWVRQAPGKGLEWVSAHTHSPGSTYYADSVKGRFTISRDNSKNTLYLQMNSLRAEDTAVYYCARLRADLGLYMDLWGRGTLVTVSS
VL: QSVLTQPPSVSAAPGQKVTISCSGSSSNIGNHYVSWYQQLPGTAPKLLIYDNSERPSGVPDRFSGSKSGTSATLGITGLQTGDEADYYCGTWDSSLSALVFGGGTKLTVL
**Q.** What does the source list for B1?
**A.** Trimeric human ARG2 EIA IC50 [1]: 97.6 nM; IC50 [2]: 57.8 nM

B2: C0021139 Fab (Fab, V domains shown)
VH: EVQLLESGGGLVQPGGSLRLSCAASGFTFQYDYQVWVRQAPGKGLEWVSAISGSGGSTYYADSVKGRFTISRDNSKNTLYLQMNSLRAEDTAVYYCARLRADLGLYMDLWGRGTLVTVSS
VL: QSVLTQPPSVSAAPGQKVTISCSGSSSNIGNHYVSWYQQLPGTAPKLLIYDNSERTSGIPDRFSGSKSGTSATLGITGLQTGDEADYYCGTWDELTSNLVFGGGTKLTVL
**Q.** With B2 as the binder, how does the SEC peak of the 1:1 molar ARG2:Fab mixture [3] read?
**A.** 275 kDa

**Q.** What about the increase in average hydrodynamic radius (Rh) against ARG2-C0020187 Fab complexes [4] of the same binder?
**A.** 1.5 nm

B3: C0020065 recombinant human IgG1 (antibody, V domains shown)
VH: GVNLRESGGGVVQPGRSLRLSCAASGFTFSSYAMHWVRQAPGKGLEWVAVISYDGSNKYYVDSVKGRFTISRDNSKNTLYLQMNSLRAEDTAVYYCARDSSQLWFDYWGRGTLVTVSS
VL: QSVVTQPPSVSGAPGQRVTISCTGSSSNIGTGYDVHWYQQLPGTAPKLLIYGNSNRPSGVPDRFSGSKSGTSASLAITGLQAEDEADYYCQSYDSSLSGSVVFGGGTQLTVL
**Q.** With B3 as the binder, how does the EC50, In Presence of rhARG2 (T cell proliferation) [1] read?
**A.** > 2000 nM

**Q.** What about the Maximum % Proliferation, In Presence of rhARG2 [1] of the same binder?
**A.** 49%
